Data as given in US20240093191A1, “COMPOSITIONS AND METHODS FOR TREATING DISEASE ASSOCIATED WITH DUX4 OVEREXPRESSION” (RESEARCH INSTITUTE AT NATIONWIDE CHILDREN'S HOSPITAL, priority 2021, published 2024).

B1: U6.mir-675-2.3: mir-675 construct with modified 5' and 3' flanking sequences (nucleic acid)
DNA: TCTAGAGATCCGACGCCGCCATCTCTAGGCCCGCGCCGGCCCCCTCGCACAGACTTGTGGGAGAAGCTCGGCTACTCCCCTGCCCCGGTTAATTTGCATATAATATTTCCTAGTAACTATAGAGGCTTAATGTGCGATAAAAGACAGATAATCTGTTCTTTTTAATACTAGCTACATTTTACATGATAGGCTTGGATTTCTATAAGAGATACAAATACTAAATTATTATTTTAAAAAACAGCACAAAAGGAAACTCACCCTAACTGTAAAGTAATTGTGTGTTTTGAGACTATAAATATCCCTTGGAGAAAAGCCTTGTTTGAATCACACTGCCCCAGGGTCTGGTGCGGAGAGGGCCCACAGTGGACTTGGTGACGCTGTATGCCCTCACCGCTCAGCCCCTGGGGATACTCCTAATCACACTTTTTT
B2: U6.mir-675-2.1: mir-675 construct with modified 5' and 3' flanking sequences (nucleic acid)
DNA: TCTAGAGATCCGACGCCGCCATCTCTAGGCCCGCGCCGGCCCCCTCGCACAGACTTGTGGGAGAAGCTCGGCTACTCCCCTGCCCCGGTTAATTTGCATATAATATTTCCTAGTAACTATAGAGGCTTAATGTGCGATAAAAGACAGATAATCTGTTCTTTTTAATACTAGCTACATTTTACATGATAGGCTTGGATTTCTATAAGAGATACAAATACTAAATTATTATTTTAAAAAACAGCACAAAAGGAAACTCACCCTAACTGTAAAGTAATTGTGTGTTTTGAGACTATAAATATCCCTTGGAGAAAAGCCTTGTTTGCCCCAGGGTCTGGTGCGGAGAGGGCCCACAGTGGACTTGGTGACGCTGTATGCCCTCACCGCTCAGCCCCTGGGGTAACTCCTAATCACACTTTTTT
B3: U6.mir-675F: U6 mir-675 construct with flanking sequences similar to H1.mir-675 (nucleic acid)
DNA: GACGCCGCCATCTCTAGGCCCGCGCCGGCCCCCTCGCACAGACTTGTGGGAGAAGCTCGGCTACTCCCCTGCCCCGGTTAATTTGCATATAATATTTCCTAGTAACTATAGAGGCTTAATGTGCGATAAAAGACAGATAATCTGTTCTTTTTAATACTAGCTACATTTTACATGATAGGCTTGGATTTCTATAAGAGATACAAATACTAAATTATTATTTTAAAAAACAGCACAAAAGGAAACTCACCCTAACTGTAAAGTAATTGTGTGTTTTGAGACTATAAATATCCCTTGGAGAAAAGCCTTGTTTGCCCCAGGGTCTGGTGCGGAGAGGGCCCACAGTGGACTTGGTGACGCTGTATGCCCTCACCGCTCAGCCCCTGGGGAATTCTTCGATTCTGCTTTTTT
B4: U6.mir-675-2.5: mir-675 construct with modified 5' and 3' flanking sequences (nucleic acid)
DNA: TCTAGAGATCCGACGCCGCCATCTCTAGGCCCGCGCCGGCCCCCTCGCACAGACTTGTGGGAGAAGCTCGGCTACTCCCCTGCCCCGGTTAATTTGCATATAATATTTCCTAGTAACTATAGAGGCTTAATGTGCGATAAAAGACAGATAATCTGTTCTTTTTAATACTAGCTACATTTTACATGATAGGCTTGGATTTCTATAAGAGATACAAATACTAAATTATTATTTTAAAAAACAGCACAAAAGGAAACTCACCCTAACTGTAAAGTAATTGTGTGTTTTGAGACTATAAATATCCCTTGGAGAAAAGCCTTGTTAACGCGAATCACACTGCCCCAGGGTCTGGTGCGGAGAGGGCCCACAGTGGACTTGGTGACGCTGTATGCCCTCACCGCTCAGCCCCTGGGGATACTCCTAATCACACTTTTTT

Tests used:
Format in all cases: cell-based, human
[1] = test system: mir-675-5p; experiment: ddPCR of all mature mir-675-5p sequences (TaqMan Advanced miRNA cDNA synthesis) in HEK293 cells
Description: Digital Droplet PCR (ddPCR). For mir-675 and mi405 constructs, RNA extraction was carried out as described for QPCR above. For cDNA synthesis, the TaqMan advanced cDNA synthesis kit (Thermo Fisher) was used and cDNA was prepared by following manufacturer's instructions. ddPCR was carried out using 1× ddPCR Supermix for probes (No dUTP) (Bio-Rad), 1× commercially available mir-675 advanced TaqMan probe, or a custom made mi405 advanced TaqMan probe (ThermoFisher) and 50 ng of cDNA. For DUX4 cDNA synthesis, the High-Capacity cDNA Reverse Transcription Kit (Applied Biosystems) was used according to manufacturer's instructions. Within the same cDNA reaction, 1×RT random hexamer primers and 25 pmoles of the Oligo(dT) primer were used to generate cDNA for DUX4 and DUX4-responsive biomarkers and for mouse Rpl13A, used as a reference gene. To quantify DUX4, the ddPCR reaction mixture (20 μL) contained 1× ddPCR Evagreen Supermix (Bio-Rad), 1 μM of forward and reverse DUX4 primers (Sharma et al., J Genet Syndr Gene Ther 2016 August; 7(4):303. doi: 10.4172/2157-7412.1000303. Epub 2016 Aug. 8), and 50 ng of cDNA. To quantify Rpl13A and DUX4-responsive biomarkers (Trim36 and Wfdc3), the 1× ddPCR Supermix for probes (No dUTP) and TaqMan specific probes were used for each of the genes. Droplets were generated using the Automatic Droplet generator QX200 AutoDG (Bio-Rad), the reactions were amplified in a C1000 Touch™ Thermal Cycler with 96-Deep Well Reaction Module (Bio-Rad). Cycling conditions were set up following the QX200 ddPCR Evagreen Supermix protocol. All assays are compatible with an annealing temperature of 58° C. Droplets were then read using the QX200 droplet reader (Bio-Rad). Finally, data were analyzed using the QuantaSoft analysis software (Bio-Rad). For quantification, each reaction of 20 μL was estimated to give at least 10,000 acceptable droplets.
In order to quantify the level of all these mature sequences, the TaqMan advanced miRNA cDNA synthesis method that uses universal reverse transcription (RT) chemistry to synthesize cDNA templates that can be quantified using the TaqMan Advanced miRNA probes was used. In this method, most of the processed mature miRNA sequences were quantified.

[2] = test system: DUX4 protein; experiment: Western blot of V5-tagged DUX4 protein in co-transfected HEK293 cells; conditions: CMV.DUX4-FL/CMV.eGFP; HEK293; molar ratio 1 to 3; eGFP normalizer; relative to U6-milacZ; N = 3-8
Description: Western Blots. […] 50 mM Tris (pH 7.5-8.0), 150 mM NaCl, 0.1% (v/v) SDS, 0.5% (v/v) deoxycholate, 1% (v/v) triton X-100 (Fisher Scientific) and 1 tablet of protease inhibitor (ThermoFisher Scientific) per 10 mL of buffer. The total protein extract was quantified using the DC Protein Assay (Bio-Rad). Twenty microgram samples were separated on 12% SDS-PAGE, transferred to nitrocellulose membrane, using the wet transfer system, and incubated with the following antibodies: mouse monoclonal antibody to V5 (horseradish peroxidase [HRP]-coupled) [1:5,000 in 5% milk TBST buffer (150 mM NaCl, 50 mM Tris-HCl pH 7.4 and 0.1% Tween 20 (Fisher Scientific)), R961-25; Invitrogen); rabbit polyclonal eGFP antibody (1:50,000 in 3% BSA PBS, ab290; Abcam); mouse monoclonal β-actin antibodies (1:60,000; Sigma, St Louis, MO); overnight at 4° C. When using the eGFP antibody, membranes were blocked 30 mins with 3% BSA PBS prior to blotting. eGFP-probed blots were washed five times, 5 min each with 0.5% Tween 20 (Fisher Scientific) in TBST buffer, and then incubated with HRP-coupled goat anti-rabbit secondary antibody (1:250,000 in 3% BSA PBS, 115-035-144; Jackson ImmunoResearch) for 2 hours at room temperature. V5-probed blots were washed five times, 5 min each with 0.1% Tween 20 in TBST buffer. Following washes, blots were developed using Immobilon Western HRP substrate (Millipore) and exposed to film. DUX4.V5, and eGFP quantification was assessed using ImageJ.

[3] = test system: mir-675-5p; experiment: Small-transcript northern blot of mir-675 processing in HEK293 cells; conditions: HEK293; anti-mir-675-5p biotinylated probe
Text: Small-Transcript Northern Blots. […] (SEQ ID NO: 148)).

| Molecule | fold change of all mature mir-675-5p sequences compared to U6.mir-675 [1] | Average inhibition efficiency (%) of DUX4 protein levels [2] | mature mir-675-5p bands on northern blot [3] |
| --- | --- | --- | --- |
| B1 | 114±8% | 64 ± 10 (N = 8) % |  |
| B2 | 142±45% | 64 ± 4 (N = 8) % | detectable mir-675 mature sequences |
| B3 | 133±38% | 64 ± 6 (N = 6) % | detectable mir-675 mature sequences |
| B4 | 153±52% | 56 ± 6 (N = 5) % |  |
